In this assay the target is purified trimeric native F protein of respiratory syncytial virus (respiratory syncytial virus) (UniProt P03420). As to the kind of experiment: SPR; normalized maximum SPR signal of purified scaffolds, point mutants and RSV-F at various concentrations of hRSV90 antibody, sigmoid fits. (SPR reads the build-up and loss of mass on a sensor chip optically.)

By Kd is commonly meant the free concentration of one partner at which half of the binding sites on the other are occupied at equilibrium, for simple one-to-one binding.

purified trimeric native F protein of respiratory syncytial virus (respiratory syncytial virus), sequence (P03420 138-513): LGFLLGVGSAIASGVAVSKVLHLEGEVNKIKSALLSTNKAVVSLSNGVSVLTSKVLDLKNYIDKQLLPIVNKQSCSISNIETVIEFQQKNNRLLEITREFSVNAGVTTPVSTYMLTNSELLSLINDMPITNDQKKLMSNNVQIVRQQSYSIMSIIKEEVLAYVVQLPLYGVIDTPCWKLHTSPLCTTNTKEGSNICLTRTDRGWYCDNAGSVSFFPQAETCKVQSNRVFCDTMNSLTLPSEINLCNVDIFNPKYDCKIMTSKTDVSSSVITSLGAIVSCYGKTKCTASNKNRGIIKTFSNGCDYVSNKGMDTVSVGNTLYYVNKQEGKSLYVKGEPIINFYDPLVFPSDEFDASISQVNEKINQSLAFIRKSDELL

Substance neutralizing antibody hRSV90 showed a dissociation constant Kd of 23 nM.
